Assay results reported in patent US10562947B2, “Compositions and methods for preventing or treating diseases, conditions or processes characterized by aberrant fibroblast proliferation and extracellular matrix deposition” (MOERAE MATRIX, INC., priority 2011, dated 2020).

Experiments:
Experiment in all cases: Kinase Profiling Assay
Assay type in all cases: biochemical
Details in all cases: 100 μM peptide
PKG1β(h) = molecular target: T1, PKG1β(h) (Homo sapiens, UniProt Q13976)
T1 construct: purchased Millipore (IC50 Profiler Express service)
T1 sequence (Q13976 1-686 isoform Q13976-2): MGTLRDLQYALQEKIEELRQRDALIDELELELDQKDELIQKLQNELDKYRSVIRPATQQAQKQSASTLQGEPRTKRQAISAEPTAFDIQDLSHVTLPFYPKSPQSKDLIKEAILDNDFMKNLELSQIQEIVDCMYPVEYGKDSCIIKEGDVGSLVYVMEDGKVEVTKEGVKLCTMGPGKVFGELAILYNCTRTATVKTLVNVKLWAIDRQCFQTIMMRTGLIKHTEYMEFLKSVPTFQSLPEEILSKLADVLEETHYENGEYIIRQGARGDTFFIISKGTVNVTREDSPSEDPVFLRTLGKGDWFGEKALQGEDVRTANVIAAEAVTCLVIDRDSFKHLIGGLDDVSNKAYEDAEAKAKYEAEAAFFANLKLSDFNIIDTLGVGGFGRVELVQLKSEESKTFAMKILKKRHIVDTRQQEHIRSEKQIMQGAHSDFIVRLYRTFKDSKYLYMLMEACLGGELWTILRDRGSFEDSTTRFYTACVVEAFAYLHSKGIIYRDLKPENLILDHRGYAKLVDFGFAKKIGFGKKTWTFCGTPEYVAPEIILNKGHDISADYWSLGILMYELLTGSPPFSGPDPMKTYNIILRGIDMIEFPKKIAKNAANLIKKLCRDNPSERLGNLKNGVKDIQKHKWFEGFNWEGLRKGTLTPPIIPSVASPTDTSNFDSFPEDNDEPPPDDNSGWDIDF
Outline: (§1)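 First, MK2 inhibitor peptides were applied to a panel of 266 human kinases; then each kinase's activity was measured in duplicate to assess off-target inhibition.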

Itk(h) = molecular target: T2, Itk(h) (Homo sapiens, UniProt Q08881)
T2 construct: purchased Millipore
T2 sequence (Q08881 1-620): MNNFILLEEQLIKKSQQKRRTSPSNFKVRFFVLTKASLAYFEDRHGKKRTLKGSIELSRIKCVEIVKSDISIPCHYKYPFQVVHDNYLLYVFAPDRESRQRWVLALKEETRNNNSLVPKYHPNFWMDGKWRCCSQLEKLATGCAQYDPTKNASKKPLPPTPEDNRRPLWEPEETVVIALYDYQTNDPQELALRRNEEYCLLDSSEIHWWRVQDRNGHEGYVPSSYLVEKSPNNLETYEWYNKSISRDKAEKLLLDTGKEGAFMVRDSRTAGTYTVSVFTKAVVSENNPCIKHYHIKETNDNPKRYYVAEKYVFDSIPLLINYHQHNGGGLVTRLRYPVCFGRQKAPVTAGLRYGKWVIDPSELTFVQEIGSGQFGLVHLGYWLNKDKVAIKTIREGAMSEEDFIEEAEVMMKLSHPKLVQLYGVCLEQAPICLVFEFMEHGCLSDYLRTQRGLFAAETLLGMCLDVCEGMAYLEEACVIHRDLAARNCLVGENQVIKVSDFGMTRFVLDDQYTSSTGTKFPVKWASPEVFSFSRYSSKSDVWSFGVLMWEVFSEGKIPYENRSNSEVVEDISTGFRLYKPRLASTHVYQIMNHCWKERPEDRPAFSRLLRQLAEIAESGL
Outline: as §1

CK1δ(h) = CK1δ(h) (Homo sapiens, UniProt P48730)
Outline: as §1

SAPK2a(h) = SAPK2a(h) (Homo sapiens, UniProt Q16539)
Outline: as §1

IGF-1R(h), activated = molecular target: T3, IGF-1R(h), activated (Homo sapiens, UniProt P08069)
T3 construct: purchased Millipore
Outline: as §1

Hck(h) = molecular target: T4, Hck(h) (Homo sapiens, UniProt P08631)
T4 construct: purchased Millipore
Outline: as §1

EphA5(h) = EphA5(h) (Homo sapiens, UniProt P54756)
Outline: as §1

Pim-3(h) = Pim-3(h) (Homo sapiens, UniProt Q86V86)
Outline: as §1

Met(D1246H)(h) = Met(D1246H)(h) (Homo sapiens, UniProt P08581, D1228H)
Outline: as §1

F1t3(h) = F1t3(h) (Homo sapiens, UniProt P36888)
Outline: as §1

mTOR(h) = mTOR(h) (Homo sapiens, UniProt P42345)
Outline: as §1

Sequence of SAPK2a(h) (Q16539 whole entry): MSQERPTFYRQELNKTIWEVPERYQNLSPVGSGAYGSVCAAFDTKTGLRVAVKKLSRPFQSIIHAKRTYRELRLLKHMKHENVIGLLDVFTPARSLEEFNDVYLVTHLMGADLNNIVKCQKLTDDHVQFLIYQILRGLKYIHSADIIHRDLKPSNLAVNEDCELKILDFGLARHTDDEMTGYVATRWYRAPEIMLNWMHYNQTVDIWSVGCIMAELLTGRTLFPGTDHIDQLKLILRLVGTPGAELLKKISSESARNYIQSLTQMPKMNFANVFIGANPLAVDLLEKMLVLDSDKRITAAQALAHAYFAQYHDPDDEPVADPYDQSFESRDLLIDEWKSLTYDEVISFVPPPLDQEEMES
Sequence of EphA5(h) (P54756 25-1037): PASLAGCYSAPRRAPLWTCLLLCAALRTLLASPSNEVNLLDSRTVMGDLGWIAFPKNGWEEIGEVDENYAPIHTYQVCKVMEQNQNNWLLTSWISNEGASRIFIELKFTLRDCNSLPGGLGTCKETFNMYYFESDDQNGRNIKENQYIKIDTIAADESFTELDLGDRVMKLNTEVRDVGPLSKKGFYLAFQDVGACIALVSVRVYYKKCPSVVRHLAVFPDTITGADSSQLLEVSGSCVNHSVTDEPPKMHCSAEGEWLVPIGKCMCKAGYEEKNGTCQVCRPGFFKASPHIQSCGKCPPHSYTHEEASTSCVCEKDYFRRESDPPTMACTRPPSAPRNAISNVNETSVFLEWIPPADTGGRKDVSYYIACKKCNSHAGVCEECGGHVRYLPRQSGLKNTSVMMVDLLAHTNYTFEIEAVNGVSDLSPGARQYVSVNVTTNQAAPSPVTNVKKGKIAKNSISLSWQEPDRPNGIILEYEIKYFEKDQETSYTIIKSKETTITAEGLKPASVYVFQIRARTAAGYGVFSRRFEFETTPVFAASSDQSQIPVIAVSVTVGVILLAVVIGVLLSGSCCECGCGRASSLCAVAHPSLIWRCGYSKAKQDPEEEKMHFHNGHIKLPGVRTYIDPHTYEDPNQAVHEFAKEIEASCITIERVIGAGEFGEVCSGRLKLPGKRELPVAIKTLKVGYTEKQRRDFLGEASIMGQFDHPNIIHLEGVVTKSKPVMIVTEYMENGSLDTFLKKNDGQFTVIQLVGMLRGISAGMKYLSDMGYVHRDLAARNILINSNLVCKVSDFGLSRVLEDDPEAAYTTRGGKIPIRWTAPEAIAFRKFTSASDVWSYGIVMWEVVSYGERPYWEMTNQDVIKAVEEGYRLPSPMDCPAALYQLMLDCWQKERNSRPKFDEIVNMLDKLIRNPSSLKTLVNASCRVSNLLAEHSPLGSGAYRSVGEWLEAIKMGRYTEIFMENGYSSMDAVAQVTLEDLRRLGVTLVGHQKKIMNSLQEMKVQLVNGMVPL
T3 sequence (P08069 959-1367 limits assumed): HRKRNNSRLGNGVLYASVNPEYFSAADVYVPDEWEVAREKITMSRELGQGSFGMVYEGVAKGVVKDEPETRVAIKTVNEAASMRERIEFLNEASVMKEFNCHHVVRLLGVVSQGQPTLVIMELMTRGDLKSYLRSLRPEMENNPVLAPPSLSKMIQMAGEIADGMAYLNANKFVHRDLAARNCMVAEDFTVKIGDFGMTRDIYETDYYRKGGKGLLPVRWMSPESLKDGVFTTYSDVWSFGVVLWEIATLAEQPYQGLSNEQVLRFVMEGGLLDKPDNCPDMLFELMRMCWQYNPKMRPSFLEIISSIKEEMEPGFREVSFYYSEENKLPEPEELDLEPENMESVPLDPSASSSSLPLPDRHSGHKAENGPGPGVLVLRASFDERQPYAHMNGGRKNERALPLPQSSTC
T4 sequence (P08631 whole entry): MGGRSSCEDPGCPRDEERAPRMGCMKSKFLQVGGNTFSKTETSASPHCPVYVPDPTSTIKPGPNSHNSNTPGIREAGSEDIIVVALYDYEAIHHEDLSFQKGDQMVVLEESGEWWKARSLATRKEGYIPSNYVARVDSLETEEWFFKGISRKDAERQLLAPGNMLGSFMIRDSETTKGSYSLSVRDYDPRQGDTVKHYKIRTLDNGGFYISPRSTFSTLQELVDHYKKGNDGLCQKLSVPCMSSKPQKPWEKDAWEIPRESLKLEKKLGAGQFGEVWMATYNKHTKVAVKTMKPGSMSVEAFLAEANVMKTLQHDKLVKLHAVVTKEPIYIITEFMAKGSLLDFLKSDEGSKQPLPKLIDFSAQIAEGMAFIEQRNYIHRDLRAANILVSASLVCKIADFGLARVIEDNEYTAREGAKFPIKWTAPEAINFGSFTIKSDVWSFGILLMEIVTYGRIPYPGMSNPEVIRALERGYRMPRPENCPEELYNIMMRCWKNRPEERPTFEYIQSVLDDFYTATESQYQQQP
Sequence of CK1δ(h) (P48730 whole entry): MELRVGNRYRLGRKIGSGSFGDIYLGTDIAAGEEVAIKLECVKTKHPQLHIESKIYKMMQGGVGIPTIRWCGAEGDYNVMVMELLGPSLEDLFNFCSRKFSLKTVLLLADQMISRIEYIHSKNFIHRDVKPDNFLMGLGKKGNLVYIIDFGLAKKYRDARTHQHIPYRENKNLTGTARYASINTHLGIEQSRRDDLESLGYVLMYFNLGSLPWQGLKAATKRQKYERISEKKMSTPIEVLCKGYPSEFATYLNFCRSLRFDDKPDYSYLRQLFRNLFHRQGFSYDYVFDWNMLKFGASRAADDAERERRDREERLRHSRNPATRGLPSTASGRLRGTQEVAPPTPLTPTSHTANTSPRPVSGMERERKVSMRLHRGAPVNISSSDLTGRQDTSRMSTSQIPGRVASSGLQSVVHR

Row | Sequence | PKG1β(h) % activity (PKG1β(h)) | Itk(h) % activity (Itk(h)) | CK1δ(h) % activity (CK1δ(h)) | SAPK2a(h) % activity (SAPK2a(h)) | IGF-1R(h), activated % activity (IGF-1R(h), activated) | Hck(h) % activity (Hck(h)) | EphA5(h) % activity (EphA5(h)) | Pim-3(h) % activity (Pim-3(h)) | Met(D1246H)(h) % activity (Met(D1246H)(h)) | F1t3(h) % activity (F1t3(h)) | mTOR(h) % activity (mTOR(h))
1 | FAKLAARLYRKALARQLGVAA [MMI-0300] | 50% | 77% | 92% | 90% | 80% | 72% | 18% | 80% | 125% | 84% | 91%
2 | HRRIKAWLKKIKALARQLGVAA (Mammalian) [MMI-0500] | 24% | 7% | 78% | 52% | 45% | 78% | 42% | 37% | 150% | 17% | 135%
3 | KAFAKLAARLYRKALARQLGVAA [MMI-0400] | 53% | 63% | 93% | 85% | 77% | 72% | 24% | 80% | 68% | 18% | 93%
4 | YARAAARQARAKALNRQLGVA (Mammalian) [MMI-0200] | 57% | 98% | 92% | – | 94% | – | 123% | 94% | 139% | 99% | 110%
